# Assay results reported in publication PMC8569552, “Basolateral protein Scribble binds phosphatase PP1 to establish a signaling network maintaining apicobasal polarity” (The Journal of Biological Chemistry, 2021).
# Target: the molecule itself
# Experiment: native gel or EMSA; BN-PAGE (Native-PAGE Novex Bis-Tris) of 1% Triton X-100 lysates of DLD20-2 cells expressing the tagged protein, no cross-linking; blot probed for GFP
protein,measurement,value
"sLUR-517GFP (domain or fragment, human, UniProt Q14160 1-517, looked up, Scribble, LAP unique region (sLUR): LRR domain of 17 LRRs, LAPSDa and LAPSDb; the discussion calls the tag mGFP; also called full-length sLUR; source: DLD20-2 cells (LAP protein-deficient DLD1), transfected clones, in lysate) MLKCIPLWRCNRHVESVDKRHCSLQAVPEEIYRYSRSLEELLLDANQLRELPKPFFRLLNLRKLGLSDNEIQRLPPEVANFMQLVELDVSRNDIPEIPESIKFCKALEIADFSGNPLSRLPDGFTQLRSLAHLALNDVSLQALPGDVGNLANLVTLELRENLLKSLPASLSFLVKLEQLDLGGNDLEVLPDTLGALPNLRELWLDRNQLSALPPELGNLRRLVCLDVSENRLEELPAELGGLVLLTDLLLSQNLLRRLPDGIGQLKQLSILKVDQNRLCEVTEAIGDCENLSELILTENLLMALPRSLGKLTKLTNLNVDRNHLEALPPEIGGCVALSVLSLRDNRLAVLPPELAHTTELHVLDVAGNRLQSLPFALTHLNLKALWLAENQAQPMLRFQTEDDARTGEKVLTCYLLPQQPPPSLEDAGQQGSLSETWSDAPPSRVSVIQFLEAPIGDEDAEEAAAEKRGLQRRATPHPSELKVMKRSIEGRRSEACPCQPDSGSPLPAEEEKRLSAE",stoichiometry N,2
